Results reported in PMC6336796 (Nature Communications, 2019).

Biological target: T1, Flag-CENP-E (UniProt Q02224 1-2701)
T1 construct: CENP-E; Primers are in Supplementary Data 3; also called Flag-CENP-E protein; source: HEK293T, transfected, mitotic cells
Experiment: pull-down; Flag-CENP-E purified from mitotic HEK293T lysate and eluted with 3x Flag peptide, incubated with Myc-GFP or Myc-HOIP bound to anti-c-Myc affinity gel; blot with anti-Flag
Conditions: both partners purified

T1 sequence (Q02224 whole entry): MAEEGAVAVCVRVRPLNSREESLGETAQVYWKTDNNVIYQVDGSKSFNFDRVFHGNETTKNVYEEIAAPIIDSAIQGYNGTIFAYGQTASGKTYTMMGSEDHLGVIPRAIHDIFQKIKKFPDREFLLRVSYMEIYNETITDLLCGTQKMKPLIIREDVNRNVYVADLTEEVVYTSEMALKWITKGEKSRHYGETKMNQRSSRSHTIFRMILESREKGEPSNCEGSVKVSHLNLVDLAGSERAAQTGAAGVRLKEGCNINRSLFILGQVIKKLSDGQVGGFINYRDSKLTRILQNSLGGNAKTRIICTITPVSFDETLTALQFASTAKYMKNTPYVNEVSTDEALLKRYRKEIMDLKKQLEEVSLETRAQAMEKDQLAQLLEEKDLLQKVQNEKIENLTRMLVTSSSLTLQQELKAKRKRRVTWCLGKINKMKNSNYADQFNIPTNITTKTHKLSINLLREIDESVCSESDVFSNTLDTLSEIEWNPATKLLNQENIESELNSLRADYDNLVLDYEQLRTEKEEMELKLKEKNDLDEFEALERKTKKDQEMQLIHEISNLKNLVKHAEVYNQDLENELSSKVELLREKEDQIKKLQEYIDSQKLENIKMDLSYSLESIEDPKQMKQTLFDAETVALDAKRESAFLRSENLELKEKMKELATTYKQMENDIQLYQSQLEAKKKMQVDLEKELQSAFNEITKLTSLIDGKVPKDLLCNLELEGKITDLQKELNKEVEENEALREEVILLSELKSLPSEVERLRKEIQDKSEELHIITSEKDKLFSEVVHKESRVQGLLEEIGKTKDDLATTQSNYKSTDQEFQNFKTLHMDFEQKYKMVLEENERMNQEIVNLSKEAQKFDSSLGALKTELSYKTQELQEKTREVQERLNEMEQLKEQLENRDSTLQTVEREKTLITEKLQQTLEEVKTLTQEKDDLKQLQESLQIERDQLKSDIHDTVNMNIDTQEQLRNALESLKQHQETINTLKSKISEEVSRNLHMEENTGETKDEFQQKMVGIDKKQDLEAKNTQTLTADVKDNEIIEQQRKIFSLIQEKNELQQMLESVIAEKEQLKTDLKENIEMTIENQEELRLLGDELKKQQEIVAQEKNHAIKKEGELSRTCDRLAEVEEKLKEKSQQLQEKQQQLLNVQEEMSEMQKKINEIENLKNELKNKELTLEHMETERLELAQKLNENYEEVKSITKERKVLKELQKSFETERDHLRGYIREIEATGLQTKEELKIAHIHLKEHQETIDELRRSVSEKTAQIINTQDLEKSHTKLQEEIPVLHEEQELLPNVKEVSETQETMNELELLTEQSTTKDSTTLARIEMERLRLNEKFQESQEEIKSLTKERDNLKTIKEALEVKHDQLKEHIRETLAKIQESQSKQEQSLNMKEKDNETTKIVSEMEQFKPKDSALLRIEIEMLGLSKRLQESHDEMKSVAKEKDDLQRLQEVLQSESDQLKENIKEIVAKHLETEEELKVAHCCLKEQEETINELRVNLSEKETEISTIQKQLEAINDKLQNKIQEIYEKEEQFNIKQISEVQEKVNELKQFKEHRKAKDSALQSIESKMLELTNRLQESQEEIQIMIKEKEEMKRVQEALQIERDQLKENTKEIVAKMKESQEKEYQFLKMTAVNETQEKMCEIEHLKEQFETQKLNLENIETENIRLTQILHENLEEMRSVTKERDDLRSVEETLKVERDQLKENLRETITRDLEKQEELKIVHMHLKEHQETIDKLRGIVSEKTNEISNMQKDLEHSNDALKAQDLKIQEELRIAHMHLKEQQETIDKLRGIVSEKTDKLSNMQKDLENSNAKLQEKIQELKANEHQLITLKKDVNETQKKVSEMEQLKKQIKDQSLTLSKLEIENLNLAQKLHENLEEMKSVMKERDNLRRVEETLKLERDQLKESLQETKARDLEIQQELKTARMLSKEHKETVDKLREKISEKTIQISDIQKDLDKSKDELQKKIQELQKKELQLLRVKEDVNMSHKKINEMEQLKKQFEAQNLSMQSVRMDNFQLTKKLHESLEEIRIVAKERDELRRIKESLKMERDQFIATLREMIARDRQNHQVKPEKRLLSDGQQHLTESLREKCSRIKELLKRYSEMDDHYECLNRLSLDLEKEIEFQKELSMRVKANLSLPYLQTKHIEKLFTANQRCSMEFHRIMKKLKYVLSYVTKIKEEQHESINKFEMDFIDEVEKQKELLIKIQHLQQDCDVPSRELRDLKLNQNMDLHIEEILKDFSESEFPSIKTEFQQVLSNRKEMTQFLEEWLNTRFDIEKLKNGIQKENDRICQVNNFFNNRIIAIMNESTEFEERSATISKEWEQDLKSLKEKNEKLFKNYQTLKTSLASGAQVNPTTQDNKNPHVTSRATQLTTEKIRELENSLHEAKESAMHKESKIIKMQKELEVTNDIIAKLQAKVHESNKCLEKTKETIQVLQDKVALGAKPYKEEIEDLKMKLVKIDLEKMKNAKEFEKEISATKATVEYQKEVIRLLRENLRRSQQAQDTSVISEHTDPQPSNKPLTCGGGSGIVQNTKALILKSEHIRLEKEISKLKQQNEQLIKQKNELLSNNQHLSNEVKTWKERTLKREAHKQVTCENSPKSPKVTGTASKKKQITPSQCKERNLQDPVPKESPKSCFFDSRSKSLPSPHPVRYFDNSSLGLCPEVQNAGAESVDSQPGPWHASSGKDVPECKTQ

- binding result: binds
B1: Myc-HOIP (enzyme, UniProt Q96EP0 1-1072, looked up)
chain: MPGEEEERAFLVAREELASALRRDSGQAFSLEQLRPLLASSLPLAARYLQLDAARLVRCNAHGEPRNYLNTLSTALNILEKYGRNLLSPQRPRYWRGVKFNNPVFRSTVDAVQGGRDVLRLYGYTEEQPDGLSFPEGQEEPDEHQVATVTLEVLLLRTELSLLLQNTHPRQQALEQLLEDKVEDDMLQLSEFDPLLREIAPGPLTTPSVPGSTPGPCFLCGSAPGTLHCPSCKQALCPACDHLFHGHPSRAHHLRQTLPGVLQGTHLSPSLPASAQPRPQSTSLLALGDSSLSSPNPASAHLPWHCAACAMLNEPWAVLCVACDRPRGCKGLGLGTEGPQGTGGLEPDLARGRWACQSCTFENEAAAVLCSICERPRLAQPPSLVVDSRDAGICLQPLQQGDALLASAQSQVWYCIHCTFCNSSPGWVCVMCNRTSSPIPAQHAPRPYASSLEKGPPKPGPPRRLSAPLPSSCGDPEKQRQDKMREEGLQLVSMIREGEAAGACPEEIFSALQYSGTEVPLQWLRSELPYVLEMVAELAGQQDPGLGAFSCQEARRAWLDRHGNLDEAVEECVRTRRRKVQELQSLGFGPEEGSLQALFQHGGDVSRALTELQRQRLEPFRQRLWDSGPEPTPSWDGPDKQSLVRRLLAVYALPSWGRAELALSLLQETPRNYELGDVVEAVRHSQDRAFLRRLLAQECAVCGWALPHNRMQALTSCECTICPDCFRQHFTIALKEKHITDMVCPACGRPDLTDDTQLLSYFSTLDIQLRESLEPDAYALFHKKLTEGVLMRDPKFLWCAQCSFGFIYEREQLEATCPQCHQTFCVRCKRQWEEQHRGRSCEDFQNWKRMNDPEYQAQGLAMYLQENGIDCPKCKFSYALARGGCMHFHCTQCRHQFCSGCYNAFYAKNKCPEPNCRVKKSLHGHHPRDCLFYLRDWTALRLQKLLQDNNVMFNTEPPAGARAVPGGGCRVIEQKEVPNGLRDEACGKETPAGYAGLCQAHYKEYLVSLINAHSLDPATLYEVEELETATERYLHVRPQPLAGEDPPAYQARLLQKLTEEVPLGQSIPRRRK
notes: HOIP (RNF31) wild type; Construct supplied by Dr. Kazuhiro Iwai; also called RNF31; purified HOIP; source: HEK293T, transfected, mitotic cells
